The supplement of paper PMC7877785
± gives the uncertainty stated by the source.

Experiment: self-splicing fitness, log relative to wild type (ln ratio); higher = more splicing; Tetrahymena group I intron in knt gene, E. coli kanamycin selection, DiMSum; sequences stand for … in CUCUCU…GGAGGGAAAAGUUAUCAGGCAUGCACCUGGUAGCUAGUCUUUAAACCAAUAGAUUGCAUCGGUUUAAAAGGCAAGACCGUCAAAUUGCGGGAAAGGGGUCAACAGCCGUUCAGUACCAAGUCUCAGGGGAAACUUUGAGAUGGCCUUGCAAAGGGUAUGGUAAUAAGCUGACGGACAUGGUCCUAACCACGCAGCCAAGUCCUAAGUCAACAGAUCUUCUGUUGAUAUGGAUGCAGUUCACAGACUAAAUGUCGGUCGGGGAAGAUGUAUUCUUCUCAUAAGAUAUAGUCGGACCUCUCCUUAAUGGGAGCUAGCGGAUGAAGUGAUGCAACACUGGAGCCGCUGGGAACUAAUUUGUAUGCGAAAGUAUAUUGAUUAGUUUUGGAGUACUCGUGGUCG
How it was run: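 Pooled colonies went to amplicon sequencing on an Illumina HiSeq 2500 after six replicate transformations. The plates were LB agar with 100 μg/mL carbenicillin, 50 μM IPTG and 0.2% rhamnose, with or without 25 μg/mL kanamycin, incubated overnight at 37°C or 30°C. The E. coli BL21(DE3) library had all eight P1ex-region intron nucleotides randomised, the intron placed in the knt kanamycin-resistance gene on pET-22b(+). DiMSum fitness is the error-weighted combination of replicate fold changes, kanamycin against none, normalised to wild type.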

Row | Sequence | self-splicing fitness (ln) (30 °C) | self-splicing fitness (ln) (37 °C)
1 | AGUUAGCAAUAUUACGCCUU | -0.974 ± 0.23 | -0.383 ± 0.33
2 | AGUUAGCAAUAUUACGCGGA | -0.823 ± 0.29 | -0.581 ± 0.14
3 | AGUUAGCAAUAUUACGCUCA | -1.23 ± 0.16 | -0.21 ± 0.15
4 | AGUUAGCAAUAUUACGCUUC | -2.8 ± 0.18 | –
5 | AGUUAGCAAUAUUACGGAAG | -3.57 ± 0.3 | -3.07 ± 0.43
6 | AGUUAGCAAUAUUACGGACU | -3.24 ± 0.28 | -1.03 ± 0.25
7 | AGUUAGCAAUAUUACGGAUA | -2 ± 0.31 | -1.42 ± 0.25
8 | AGUUAGCAAUAUUACGGAUG | -0.996 ± 0.11 | -0.801 ± 0.15
9 | AGUUAGCAAUAUUACGGCGC | -0.53 ± 0.22 | 0.14 ± 0.33
10 | AGUUAGCAAUAUUACGUAAU | -2.56 ± 0.14 | -1.47 ± 0.14
11 | AGUUAGCAAUAUUACGUCCG | -1.32 ± 0.15 | -0.0933 ± 0.19
12 | AGUUAGCAAUAUUACGUCGG | -3.45 ± 0.23 | -1.67 ± 0.16
13 | AGUUAGCAAUAUUACGUCUC | -3.73 ± 0.37 | -2.44 ± 0.36
14 | AGUUAGCAAUAUUACGUGGA | -1.87 ± 0.13 | -1.58 ± 0.12
15 | AGUUAGCAAUAUUACGUUCA | -1.28 ± 0.15 | -0.155 ± 0.16
16 | AUAAAGCAAUAUUACGAAAC | -2.47 ± 0.19 | -1.18 ± 0.32
17 | AUAAAGCAAUAUUACGAAAU | -0.905 ± 0.067 | -0.451 ± 0.098
18 | AUAAAGCAAUAUUACGAACU | 0.222 ± 0.095 | 0.227 ± 0.11
19 | AUAAAGCAAUAUUACGAAGU | -1.82 ± 0.088 | -1.01 ± 0.098
20 | AUAAAGCAAUAUUACGACAG | -1.2 ± 0.1 | -1.15 ± 0.12
21 | AUAAAGCAAUAUUACGACCA | -0.122 ± 0.09 | 0.00323 ± 0.12
22 | AUAAAGCAAUAUUACGCAUA | -1.34 ± 0.088 | -0.0324 ± 0.11
23 | AUAAAGCAAUAUUACGCAUG | -0.888 ± 0.073 | -0.405 ± 0.093
24 | AUAAAGCAAUAUUACGCCAC | -1.94 ± 0.38 | –
25 | AUAAAGCAAUAUUACGCCGU | 0.151 ± 0.11 | -0.694 ± 0.12

Row | Sequence | self-splicing fitness (ln) (30 °C) | self-splicing fitness (ln) (37 °C)
26 | AUAAAGCAAUAUUACGCCUG | 0.243 ± 0.077 | -0.132 ± 0.09
27 | AUAAAGCAAUAUUACGCGCC | -0.37 ± 0.13 | -0.473 ± 0.2
28 | AUAAAGCAAUAUUACGCUCC | -0.366 ± 0.16 | -0.365 ± 0.24
29 | AUAAAGCAAUAUUACGCUUA | -1.27 ± 0.1 | 0.137 ± 0.12
30 | AUAAAGCAAUAUUACGGGCU | -0.992 ± 0.08 | -0.621 ± 0.1
31 | AUAAAGCAAUAUUACGUAUA | -1.91 ± 0.099 | -0.351 ± 0.12
32 | AUAAAGCAAUAUUACGUAUC | -3.77 ± 0.18 | -2.02 ± 0.19
33 | AUAAAGCAAUAUUACGUCAA | -1.54 ± 0.088 | -0.873 ± 0.094
34 | AUAAAGCAAUAUUACGUGGA | -3.9 ± 0.17 | -1.38 ± 0.1
35 | AUAAAGCAAUAUUACGUGGG | -2.92 ± 0.095 | -3.02 ± 0.15
36 | AUAAAGCAAUAUUACGUGUC | -3.44 ± 0.14 | -3.4 ± 0.12
37 | AUAAAGCAAUAUUACGUUAU | -0.793 ± 0.064 | -0.4 ± 0.11
38 | AUAAAGCAAUAUUACGUUGC | -3.81 ± 0.19 | -3.29 ± 0.29
39 | AUAAAGCAAUAUUACGUUUG | -2.84 ± 0.11 | -1.79 ± 0.12
40 | AUACAGCAAUAUUACGAAAA | -2.58 ± 0.26 | -1.4 ± 0.18
41 | AUACAGCAAUAUUACGAAAC | – | -3.1 ± 0.24
42 | AUACAGCAAUAUUACGAAGA | -3.16 ± 0.2 | -2.04 ± 0.17
43 | AUACAGCAAUAUUACGACAC | -0.517 ± 0.11 | -1.31 ± 0.13
44 | AUACAGCAAUAUUACGACAG | -2.15 ± 0.14 | -2.03 ± 0.15
45 | AUACAGCAAUAUUACGAGCC | -2.64 ± 0.27 | –
46 | AUACAGCAAUAUUACGAGGA | -3.26 ± 0.19 | -0.911 ± 0.12
47 | AUACAGCAAUAUUACGCACG | -2.13 ± 0.12 | -0.772 ± 0.15
48 | AUACAGCAAUAUUACGCCCC | -1.47 ± 0.25 | 0.0702 ± 0.23
49 | AUACAGCAAUAUUACGCGAC | -1.87 ± 0.14 | -1.97 ± 0.22
50 | AUACAGCAAUAUUACGCGAG | -2.35 ± 0.097 | -0.829 ± 0.1

Row | Sequence | self-splicing fitness (ln) (30 °C) | self-splicing fitness (ln) (37 °C)
51 | AUACAGCAAUAUUACGCGGU | -3.44 ± 0.21 | -2.04 ± 0.18
52 | AUACAGCAAUAUUACGCUUA | -1.67 ± 0.12 | -0.741 ± 0.099
53 | AUACAGCAAUAUUACGGAGG | -3.46 ± 0.21 | -1.8 ± 0.19
54 | AUACAGCAAUAUUACGGAUU | -1.82 ± 0.079 | -1.24 ± 0.088
55 | AUACAGCAAUAUUACGGCUA | 0.0244 ± 0.072 | 0.138 ± 0.082
56 | AUACAGCAAUAUUACGGCUU | 0.0959 ± 0.047 | 0.115 ± 0.057
57 | AUACAGCAAUAUUACGGUAA | -0.731 ± 0.094 | -0.502 ± 0.093
58 | AUACAGCAAUAUUACGGUCA | -0.743 ± 0.09 | -0.0276 ± 0.099
59 | AUACAGCAAUAUUACGGUCC | -1.18 ± 0.097 | 0.135 ± 0.11
60 | AUACAGCAAUAUUACGGUCG | -1.08 ± 0.068 | -0.545 ± 0.094
61 | AUACAGCAAUAUUACGUAAA | -1.87 ± 0.091 | -1.41 ± 0.087
62 | AUACAGCAAUAUUACGUAAG | -0.561 ± 0.05 | -0.0861 ± 0.068
63 | AUACAGCAAUAUUACGUACG | -0.772 ± 0.1 | 0.0144 ± 0.12
64 | AUACAGCAAUAUUACGUAUA | -3.94 ± 0.26 | -2.49 ± 0.16
65 | AUACAGCAAUAUUACGUCGC | -2.42 ± 0.13 | -3.06 ± 0.26
66 | AUACAGCAAUAUUACGUUUC | -3.38 ± 0.19 | -1.49 ± 0.2
67 | AUACAGCAAUAUUACGUUUG | -2.93 ± 0.11 | -2.35 ± 0.14
68 | AUAGAGCAAUAUUACGAAGG | – | -1.24 ± 0.39
69 | AUAGAGCAAUAUUACGAGUU | -2.25 ± 0.13 | -1.33 ± 0.15
70 | AUAGAGCAAUAUUACGAUCG | -1.08 ± 0.14 | -1.4 ± 0.27
71 | AUAGAGCAAUAUUACGAUGA | -2.14 ± 0.21 | -1.75 ± 0.29
72 | AUAGAGCAAUAUUACGCAAU | -0.971 ± 0.14 | 0.283 ± 0.2
73 | AUAGAGCAAUAUUACGCACA | -0.178 ± 0.09 | -0.032 ± 0.11
74 | AUAGAGCAAUAUUACGCCAG | -2.27 ± 0.21 | -1.14 ± 0.27
75 | AUAGAGCAAUAUUACGCGAC | -2.44 ± 0.18 | -1.3 ± 0.17

Row | Sequence | self-splicing fitness (ln) (30 °C) | self-splicing fitness (ln) (37 °C)
76 | AUAGAGCAAUAUUACGCGAG | -1.54 ± 0.11 | -1.26 ± 0.14
77 | AUAGAGCAAUAUUACGCUUG | -0.549 ± 0.12 | -0.411 ± 0.13
78 | AUAGAGCAAUAUUACGGAGA | -1.97 ± 0.26 | -2.31 ± 0.39
79 | AUAGAGCAAUAUUACGGCCU | -0.822 ± 0.2 | -0.365 ± 0.21
80 | AUAGAGCAAUAUUACGGCGU | 0.102 ± 0.079 | 0.527 ± 0.12
81 | AUAGAGCAAUAUUACGGCUC | -0.971 ± 0.11 | -0.403 ± 0.23
82 | AUAGAGCAAUAUUACGGCUU | -0.934 ± 0.12 | -1.34 ± 0.14
83 | AUAGAGCAAUAUUACGGGAC | -2.71 ± 0.18 | -2.36 ± 0.27
84 | AUAGAGCAAUAUUACGGGGA | – | -2.44 ± 0.28
85 | AUAGAGCAAUAUUACGGUAG | -3.5 ± 0.16 | -1.38 ± 0.13
86 | AUAGAGCAAUAUUACGGUUA | -1.49 ± 0.083 | -1.05 ± 0.11
87 | AUAGAGCAAUAUUACGUCAA | -2.19 ± 0.23 | -1.77 ± 0.24
88 | AUAGAGCAAUAUUACGUCUA | -0.2 ± 0.076 | 0.816 ± 0.11
89 | AUAGAGCAAUAUUACGUGAU | -2.02 ± 0.12 | -0.825 ± 0.17
90 | AUAGAGCAAUAUUACGUGGU | -2.91 ± 0.19 | -1.83 ± 0.2
91 | AUAUAGCAAUAUUACGACAC | -1.5 ± 0.23 | -0.312 ± 0.29
92 | AUAUAGCAAUAUUACGAGCA | -2.32 ± 0.24 | -0.917 ± 0.18
93 | AUAUAGCAAUAUUACGAUCC | -0.6 ± 0.16 | -0.578 ± 0.28
94 | AUAUAGCAAUAUUACGCAAA | -1.94 ± 0.24 | -1.69 ± 0.24
95 | AUAUAGCAAUAUUACGCUAA | -1.87 ± 0.3 | -0.768 ± 0.27
96 | AUAUAGCAAUAUUACGCUGG | -2.06 ± 0.2 | -1.51 ± 0.32
97 | AUAUAGCAAUAUUACGCUUG | -1.42 ± 0.11 | -0.589 ± 0.13
